# Assay: label from the status in PepcDB records
row,Sequence,protein production
1,MAIDTTSSAPVHEPQPPLDTRLSTRDKLVLFVLCAAQFMVALDFSVLNVALPVLGRDLGMSQSALQWAVTAFALPSGGFLLLFGRIGDLYGRRRLFLTGLALFGTASLLATFAWDPASFLAGRALQGLGAAAIVPTGMSLLTTTFPEGPARDRALGISGTLLSLGFTVGMVAGGVLTDAFGWRSTMGLLTLFALIVLPLAPGLLPESRTPDRPRLDIPGAVTVTGGLLSLIYALSTAAERGFGGTDVIATLVAGVLLLAAFVTVESHAEAPLVSLPMLRRRTVAWGNLGGLITFSMMSTVVFVLTLYLQETLGLSAFETGLVFGVQGVLSAVAGANASKVIGRLGARRTLVVSLAGQGAFVATLVALGDGGWSVWLATAAVSLASMCHLGAIISYGLTVTSGVPDDEQGLATGLVTSTQQVGITIGIPLLGVLATTSSDLLAGVHTVLALDAVIVLAAAVLIAVGLGRRPATAPGAASGAVEAEAVGSR,failed
2,MNLLYVVLIGQILLFLIGAIYAMRQTKRTKDNMPLPLAIRLILSFSLTGSAIWIWLQDPSVEYSTWVALGMTLSTVGDLFMAGLIPIGHRLIGGMVTFALAHCFYVKAFLQTGISWNGFWIGLLVYGLFLIVGWFFFIRNDKQDKLFTIGALIYGLWVGGMACFAFALYYENTGIWWIPAFGGLLFVISDFIIGVTDIGGRKLKYEPLWIWFTYVAAQMCIVYVGL,failed
3,MQIESFKSLLPKYKCIFFDAFGVLKTYNGLLPGIENTFDYLKAQGQDYYIVTNDASRSPEQLADSYHKLGLFSITADKIISSGMITKEYIDLKVDGGIVAYLGTANSANYLVSDGIKMLPVSAIDDSNIGEVNALVLLDDEGFNWFHDLNKTVNLLRKRTIPAIVANTDNTYPLTKTDVAIAIGGVATMIESILGRRFIRFGKPDSQMFMFAYDMLRQKMEISKREILMVGDTLHTDILGGNKFGLDTALVLTGNTRIDDAETKIKSTGIVPTHICESAVIEL,not failed
4,MNENHLLDLEEQKTDLGRVEISPEVIEVIAGIAASEVEGVATMRGNFAAGVAEKLGYKNHGKGVKVDLNDEGIIVDVSVIILYGVSVPEVAKKIQQNIKQALQTMTAIELQSINVHIVGVHFEAVDGEEETKLEHHHHHH,failed
5,MRNCIFYSLVLALLFLIGSCKDSDDNKTTGATYDPNQPVTVESFMPVEGKLREKVIVKGSNFGTDKSKVKVYFVDEAAERLSTVIGIDNNTLYCLAPRQLPGGNRIKVIVDGKEVTTDGTFKYEQAQNVSTISGSASKDGNDDGDLASAKFKYMWGIAAVGNNTVLAYQRDDPRVRLISVDDNKVTTVHPGFKGGKPAVTKDKQRVYSIGWEGTHTVYVYMKASGWAPTRIGQLGSTFSGKIGAVALDETEEWLYFVDSNKNFGRFNVKTQEVTLIKQLELSGSLGTNPGPYLIYYFVDSNFYMSDQNLSSVYKITPDGECEWFCGSATQKTVQDGLREEALFAQPNGMTVDEDGNFYIVDGFKGYCLRKLDILDGYVSTVAGQVDVASQIDGTPLEATFNYPYDICYDGEGGYWIAEAWGKAIRKYAVE,failed
6,MLDLQMKTAVIAVYKNAAFLEENVRLLQKEGFDVIVAADEPEESVREIIEKYSLRATVSERRRGKWRALNDAARIADGEELLFLDSDTIIKNLTGLNGADVVEVVKEVEGKGLLEKLVAVDYLVMAMCAKLASKFGSCLGVNGAAFLIKRRAFEELGGFRCKVNEDTELGIRAALGGYRFAVCGRAVTSVPKSIGEWFRQRERWSVGGTEVFVENLSAIIRKPRLWVPYLVLFYPAIFGLVISLFFTENYIAKLLYLVLPFLALISPKLASIAILAVYEMENVRNLVAGVASFVAWSGLILLASKKLGYRVDMKVLPIYYFIYSPLWTVICLISLVRVAVARVTGRKIELKDWVV,failed
7,MPHFHFSWREKFSVFRMAAEPPEKLVGALVGGLRVLRYLSAAPAGVGVTRVARDLQLNSSTCYNFLKTLVYEGLVTFDESTKTYSIALGLVELAKGVLEQGAYVRLIHPHLEEIARAHRVTATLWQRTSNERVVLVDRADNDSSVRVHMSVGQRLPMYIAALGRCMAANAGLDRDQLEQRFNALRWDDKPPFDEYLAGVQEARKNGYATDAGHYVKGVSTASAAVLDAFGKPVMAISAVGFSAQFTGDALEQLGEDLHERAGRITRALSGGRAGADS,failed
8,MPKIWTERIFDDPEIYVLRIDDDRIRYFEAVWEIPEGISYNAYLVKLNGANVLIDGWKGNYAKEFIDALSKIVDPKEITHIIVNHTEPDHSGSLPATLKTIGHDVEIIASNFGKRLLEGFYGIKDVTVVKDGEEREIGGKKFKFVMTPWLHWPDTMVTYLDGILFSCDVGGGYLLPEILDDSNESVVERYLPHVTKYIVTVIGHYKNYILEGAEKLSSLKIKALLPGHGLIWKKDPQRLLNHYVSVAKGDPKKGKVTVIYDSMYGFVENVMKKAIDSLKEKGFTPVVYKFSDEERPAISEILKDIPDSEALIFGVSTYEAEIHPLMRFTLLEIIDKANYEKPVLVFGVHGWAPSAERTAGELLKETKFRILSFTEIKGSNMDERKIEEAISLLKKELE,not failed
9,MNRNLLLLLCSLFCFIAIGKPSDFPPVPNPPKLINDFAGMLSPAEVAELERKVNTFNDSTSIEISVVIITNLGDYDIAEYAFQLGALWGIGKDKKDNGVLLLISKENRKAFIATGYGMEGVLPDARCKRIIQAELIPQFKRSNYFNGINFTIDAIMRYSKNEYTADPVAANANRIKPAYVLLFIIGVIILVSFLNRNNNSGSNRGGNNGGYGSGGGGLLGGLLGGAIGSGYRGRSYGGGFGSGSSGGGFGGFGGGGFGGGGAGGDW,failed
10,MEKIAILVDVQNVYYTCREQYGRHFDYNQFWSQVTQNRTVVKANAYAIASKDPQQRQFHHILRGIGFEVMLKPFIQRSDGSAKGDWDVGIALDGYELAQEVDTVVLVSGDGDFEPLVTRIAQRFQVKVEVYGVPKLTAQHLIDVASQFHPIEHRLL,failed
11,IMDQDGRSMFADGSKVPFERTRLLLQRLAVPLRATPLRVTIVGHTSSGLMPERSDYNGWDLSSDRANSVRQILEREGLPGSHIFAVTGKADSQPLFPDDPSIAANRRVTITLMRESPALP,failed
12,MEVSDGSSQVLNSMKHVASLRADEDPDETSLLLSSTLLDLVVFRLVLVLYCVRVLMLDQYQETIALSQEVMMEDGRREFNVPMNCPIPVVKRRMKAPKHVDEDLFKIFPQATTYLRQIQKGGGSGCFEFIRGEVCTKDLSQNNTFYFIF,failed
13,MEDELPIIKGKKVILFAPTFRGSGHGTAHYPFFKIDFERLARYCEKNNAVVLFKMHPFVKNRLNIADKHKQYFVDVSDFREVNDILFITDLLISDYSSLIYEYAVFKKPMIFYAFDLEDYITTRDFYEPYESFVPGKIVQSFDALMDALDNEDYEGEKVIPFLDKHFKYQDGRSSERLVRNLFGS,not failed
14,MELIFLGTSAGVPTRTRNVTAILLNLQHPTQSGLWLFDCGEGTQHQLLHTAFNPGKLDKIFISHLHGDHLFGLPGLLCSRSMSGIIQPLTIYGPQGIREFVETALRISGSWTDYPLEIVEIGAGEILDDGLRKVTAYPLEHPLECYGYRIEEHDKPGALNAQALKAAGVPPGPLFQELKAGKTITLEDGRQINGADYLAAPVPGKALAIFGDTGPCDAALDLAKGVDVMVHEATLDITMEAKANSRGHSSTRQAATLAREAGVGKLIITHVSSRYDDKGCQHLLRECRSIFPATELANDFTVFNV,failed
15,RNRFKWGPASQQILYQAYDRQKNPSKEEREALVEECNRAECLQRGVSPSKAHGLGSNLVTEVRVYNWFANRRKEEAFRQKLAMDAYSSN,not failed
16,MNKSKIAGIMAKLNAVDNQLVEDVAYVRSRDFPNQRFDHQQGYKGSYGNGQTSYSQNSQFQQPLQNNNSFSFTRNFDLASYQDLTAPIPRWNESSLTTSWHAASMESGYEFMKDDESDEFDVAKAVTKQNRAGSTLISRVARHTLIVLTDTTWVSIHNNTNLRKCRRLTEQNRPRLTEQD,failed
17,MTNILILMEREIIKILSVVEFHPLILAFHLGLMLAGVSLLSYSLFLILVKKVDIMLPLVISFMAYLTSLILLILILLLETYRFLIFDGRILVKNSLLTRNEFKFSLRDKNLIIGFYDKASLGKFAIIYGDRLLFKFLTQQKNIRLIKNFVVKSGYRLGGTYKICRVCGSINEENAEYCDFCGSREVSPYDLYWID,failed
18,MTLSGGGSASDMSGQTVLTAEDVDIDVVGEGDDGLEEKDSDAGCDSPAGPPELRLDEADEVPPAAPHHGQPQPPHQQPLTLPKEAAGAGAGPGGDVGAPEADGCKGGVGGEEGGASGGGPGAGSGSAGGLAPSKPKNSLVKPPYSYIALITMAILQSPQKKLTLSGICEFISNRFPYYREKFPAWQNSIRHNLSLNDCFVKIPREPGNPGKGNYWTLDPQSEDMFDNGSFLRRRKRFKRHQQEHLREQTALMMQSFGAYSLAAAAGAAGPYGRPYGLHPAAAAGAYSHPAAAAAAAAAAALQYPYALPPVAPVLPPAVPLLPSGELGRKAAAFGSQLGPGLQLQLNSLGAAAAAAGTAGAAGTTASLIKSEPSARPSFSIENIIGGGPAAPGGSAVGAGVAGGTGGSGGGSTAQSFLRPPGTVQSAALMATHQPLSLSRTTATIAPILSVPLSGQFLQPAASAAAAAAAAAQAKWPAQ,failed
19,MSLSKVFTIGEILVEIMASKIGQPFDQPGIWNGPYPSGAPAIFIDQVTRLGVPCGIISCVGNDGFGDINIHRLAADGVDIRGISVLPLEATGSAFVTYHNSGDRDFIFNIKNAACGKLSAQHVDENILKDCTHFHIMGSSLFSFHMVDAVKKAVTIVKANGGVISFDPNIRKEMLDIPEMRDALHFVLELTDIYMPSEGEVLLLSPHSTPERAIAGFLEEGVKEVIVKRGNQGASYYSANEQFHVESYPVEEVDPTGAGDCFGGAWIACRQLGFDAHRALQYANACGALAVTRRGPMEGTSRLMEIETFIQRHDMSIREAAQEGHHHHHH,not failed
20,CKLCLGEYPVEQMTTIAQCQCIFCTLCLKQYVELLIKEGLETAISCPDAACPKQGHLQENEIECMVAAEIMQRYKKLQFER,not failed
21,MEDIKIKEIFENIYEVDLGDGLKRIATKSIVKGKKVYDEKIIKIGDEEYRIWNPNKSKLAAAIIKGLKVMPIKRDSKILYLGASAGTTPSHVADIADKGIVYAIEYAPRIMRELLDACAERENIIPILGDANKPQEYANIVEKVDVIYEDVAQPNQAEILIKNAKWFLKKGGYGMIAIKARSIDVTKDPKEIFKEQKEILEAGGFKIVDEVDIEPFEKDHVMFVGIWEGK,not failed
22,VTPEQLQHHRFVLESVNGKPVTSDKNPPEISFGEKMMISGSMCNRFSGEGKLSNGELTAKGLAMTRMMCANPQLNELDNTISEMLKEGAQVDLTANQLTLATAKQTLTYKLADLMN,not failed
23,MGRLVSLLPSATDLIFELGLGEQLLGVSHCCDHPGAASLPVLTRSIIGSDLPQAEIDRAVSEAVRAGRALYTVDGPLLDRLRPDLVVTQGVCEVCAVTPGTVAEAVRFLPGCLPAEQVLSLEGKTFAGILADLRALARAAGLEHHHHHH,failed
24,MILELQNAILEMIAKGEPLAATIEQLCLKVEAAVPGIIASVLTFDGSRLHTLAGPSLPPDYSAAVDNLEAGPLAGSCGAAAYFGEAVVVTDIETDPRWQDFKSLVLPLGLKACWSSPIKRGERVIGSFAFYYRDHRGPKALERDLVEACVHLCTIAIDREERVMERQRLTYSDALTGLSNRARFNQLLAEDLPRSGRAWGILLVDIDNLKLVNDTFGHAAGDALIQVVADRVATTAGSQNTFRLGGDEFAVIVSDDKDLDLNARATDILKALSSPSTCDGHVVFPAATIGGALAETETNPDQTRQNADLALYHAKEHNRGRYVQHYPGLGTALTRRFRAVRDVGVALEDDRIDAHYQPILRLDTREIVGFEALCRMTTPSGEIIAAAHFHEATKDAHIAAELTQRMLLRVARDIRSWLARGLPLQHVGINLSAADFRGGNLQDRLCRIFGEAEVPLKHIILEVTESVYLGQRDYVVADEIKALRSKGLRVALDDFGTGYASLTHLLTVPVDIIKIDKSFIDRMVPGDAGTFIVEGLIGIADKLGIRVVAEGIETELQAVQLSQLGCKLGQGYLFSKAVDRTVAAAILEQHGQRLDQDKTRAGAL,failed

# — a protein production outcome set (Wang et al. 2014)
